# Entries after “also recorded” stand apart in the source; their conditions may differ. Structures can show the parent of a compound that is named as a salt. Where two headings read alike, the source gives them in different places.
# Key:
# [1] = system: non-fasted rats (Sprague-Dawley strain); test: In-vivo evaluation of dermally-applied insulin after diethyl maleate (DEM) pretreatment: plasma glucose; set-up: species or system rat; settings: FIG. 3
# Protocol: Two non-fasted locally-grown rats (Sprague-Dawley strain) were anesthetized (15 mg/ml pentobarbital sodium, 0.2-0.3 ml i.p.). The rats were placed on their back, the abdominal hair was trimmed off, and then the skin was washed gently with distilled water. The animals were maintained with 0.1 ml pentobarbital 15 mg/ml solution to keep them continuously asleep during the experiment. Diethyl maleate, a glutathion depleting agent, was injected intraperitoneally (0.5 ml, 20% v/v ethanolic solution) to one rat only.
# Blood sampling and glucose measurement were performed as described in example 5.
# [2] = system: GSH; settings: iodine 0.5% to 10% applied; preliminary experiments, FIG. 10
# [3] = system: rats (Sprague-Dawley strain); test: In-vivo evaluation of dermally-applied insulin with oxidant pretreatment: plasma glucose monitoring; set-up: species or system rat
# [4] = for applied insulin remained in the cylinder: after 3 hours
# Source text: Careful attention was paid that the liquid has covered the entire skin area in the cylinder and that no leaking has occurred.
# [5] = iodine-pretreated skin exposed for 2 hours to insulin; FIG. 9B
# Protocol: The method was performed according to Wroblewski et al (see above) using a reverse phase column (Vydac C18, 250×4.6 mm, 5? m), and a diodearray detector.
# [6] = control rats not pretreated with iodine, dermal insulin
molecule,measurement,setting,value
"CCOC(=O)/C=C\C(=O)OCC [DEM, Diethyl maleate]",plasma glucose,"[1]; DEM 0.5 ml 20% v/v ethanolic solution i.p., then 50 IU Humulin R dermally",abrupt reduction
II [iodine],iodine concentration at which minimum level of GSH is obtained,[2],about 2%
OO [hydrogen peroxide],plasma glucose levels,"[3]; Example 6: 3 hours oxidant pretreatment (5% silver protein, 0.01% potassium permangnate, 9% hydrogen peroxide or povidone-iodine), then 50 IU Humulin R, FIG. 2",No glucose reduction
"insulin: human insulin, applied as Humulin R solution for injection, 0.5 ml equivalent to 50 IU",plasma/blood glucose levels,"[3]; dermal insulin 50 IU, control rats without oxidant pretreatment",no reduction; also recorded: not influenced; also recorded: almost the same levels with no change
same,plasma glucose,"[1]; rat without DEM, 50 IU Humulin R dermally",decreased relatively slower
same,applied insulin remained in the cylinder,[4]; both control and iodine-treated groups,about 77%
same,applied insulin remained in the cylinder,[4]; control group (first value),76.0±6.6%
same,applied insulin remained in the cylinder,[4]; iodine-treated group,77.3±7.8%
same,insulin quantities in the open wells,"[4]; initial in vivo studies, insulin-containing wells on rat abdominal skin, no oxidant",significantly decreased
same,insulin form found in skin extract (HPLC),[5],parent insulin was accumulated quantitatively
same,plasma insulin levels,[6],No elevation

# — patent US6667052B2, “Transdermal delivery system” (priority 1997, dated 2003)
